Experimental data: patent publication US20220315655A1 (NOVIMMUNE, published 2022)

T1: recombinant mouse CD47 soluble protein (mouse, UniProt Q61735 19-140, limits assumed)
T1 sequence (looked up): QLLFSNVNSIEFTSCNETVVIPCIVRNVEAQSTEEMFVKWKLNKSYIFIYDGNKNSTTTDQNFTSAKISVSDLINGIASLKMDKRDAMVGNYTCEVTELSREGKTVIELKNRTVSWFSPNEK


Columns and labels:
[1] = molecular target: T2, recombinant human CD47 soluble protein (human, UniProt Q08722 19-139); assay: BLI (OctetRED96), His-tag CD47 on HIS1K biosensors, bsAb in solution, 1:1 global fit, 30 C
T2 construct: ELISA and BLI used different preparations; They are kept as one molecule because no limits are stated; also called His-tag human CD47

[2] = molecular target: human CD47 on cells (Raji, Nalm-6, HT-1080 tumor cells; human red blood cells) (human, UniProt Q08722 19-323); assay: cell-based or functional assay
[3] = molecular target: T1, recombinant mouse CD47 soluble protein; assay: statement in the xenograft example; assay not named
[4] = molecular target: T3, human PD-L1 on cells (hPD-L1-transfected CHO cells; IFNg-induced HT-1080 tumor cells) (human, UniProt Q9NZQ7 19-290); assay: cell-based competition: hPD-1-moFc binding to IFNg-induced PD-L1+CD47+ HT-1080 cells, CellInsight imaging
T3 construct: whole, on cells; The CHO transfectants are negative for human CD47; HT-1080 cells also carry CD47; also called PD-L1+CD47+ HT-1080

[5] = molecular target: T4, recombinant cynomolgus monkey PD-L1 soluble protein (cynomolgus monkey, UniProt G7PSE7 19-238, biotinylated); assay: BLI (OctetRED96), biotinylated PD-L1 on streptavidin biosensors, bsAb in solution, 1:1 global fit, 30 C
T4 construct: ELISA and BLI used proteins from different suppliers; They are kept as one molecule because no limits are stated; also called cyno PD-L1; cynomolgus PD-L1

[6] = molecular target: T5, recombinant mouse PD-L1 soluble protein (mouse, UniProt Q9EP73 19-238, limits assumed, biotinylated); assay: as above
T5 construct: ELISA and BLI used proteins from different sources; They are kept as one molecule because no limits are stated

[7] = molecular target: T6, recombinant human PD-L1 soluble protein (human, UniProt Q9NZQ7 19-238, biotinylated); assay: as above
T6 construct: Bought soluble protein; also called hPD-L1; B7-H1

[8] = molecular target: T5, recombinant mouse PD-L1 soluble protein; assay: statement in the xenograft example; assay not named
[9] = molecular target: T7, recombinant cynomolgus monkey CD47 soluble protein (cynomolgus monkey, UniProt A0A2K5X523 19-139); assay: BLI (OctetRED96); set-up for cynomolgus CD47 not described
T7 construct: also called cyno CD47; cynomolgus CD47

Binder | Kd [1] | in vitro phagocytosis potency (ADCP of Nalm-6 cells), macrophage donor D#096 [2] | in vitro phagocytosis potency (ADCP of Nalm-6 cells), macrophage donor D#097 [2] | in vitro phagocytosis potency (ADCP of Nalm-6 cells), macrophage donor D#103 [2] | binding result [3] | IC50 [4] | Kd [5] | Kd [6] | Kd [7] | binding result [8] | Kd [9]
K33xS79 CD47xPD-L1 bispecific antibody (bispecific antibody, human IgG4 S228P, kappa, lambda, also called K33xS79 bsAb) heavy: not shown light 1: DIQMTQSPSSLSASVGDRVTITCRASQSISSYLNWYQQKPGKAPKLLIYAASSLQSGVPSRFSGSGSGTDFTLTISSLQPEDFATYYCQQFHKRSPQKFGQGTKVEIKRTVAAPSVFIFPPSDEQLKSGTASVVCLLNNFYPREAKVQWKVDNALQSGNSQESVTEQDSKDSTYSLSSTLTLSKADYEKHKVYACEVTHQGLSSPVTKSFNRGEC light 2: QSALTQPASVSGSPGQSITISCTGTSSDVFRPPLVSWYQQHPGKAPKLMIYFASLRPSGVSNRFSGSKSGNTASLTISGLQAEDEADYYCSSWDHTGDGHVFGGGTKLTVLGQPKAAPSVTLFPPSSEELQANKATLVCLISDFYPGAVTVAWKADSSPVKAGVETTTPSKQSNNKYAASSYLSLTPEQWKSHRSYSCQVTHEGSTVEKTVAPTECS | 56 nM | 29.2 | 16 | 7.5 | no binding | 0.00219 nM | 1.35 nM | 0.52 nM | 0.5 nM | – | –
K38xS79 CD47xPD-L1 bispecific antibody (bispecific antibody, human IgG4 S228P, kappa, lambda, also called K38xS79 bsAb; K38S79) heavy: not shown light 1: DIQMTQSPSSLSASVGDRVTITCRASQVIANWLNWYQQKPGKAPKLLIYAGSHLQSGVPSRFSGSGSGTDFTLTISSLQPEDFATYYCQQMHPRAPKTFGQGTKVEIKRTVAAPSVFIFPPSDEQLKSGTASVVCLLNNFYPREAKVQWKVDNALQSGNSQESVTEQDSKDSTYSLSSTLTLSKADYEKHKVYACEVTHQGLSSPVTKSFNRGEC light 2: QSALTQPASVSGSPGQSITISCTGTSSDVFRPPLVSWYQQHPGKAPKLMIYFASLRPSGVSNRFSGSKSGNTASLTISGLQAEDEADYYCSSWDHTGDGHVFGGGTKLTVLGQPKAAPSVTLFPPSSEELQANKATLVCLISDFYPGAVTVAWKADSSPVKAGVETTTPSKQSNNKYAASSYLSLTPEQWKSHRSYSCQVTHEGSTVEKTVAPTECS | 13.6 nM | 5.6 | 5 | 3.2 | no binding | 0.00083 nM | – | – | – | binds | 16 nM
K106xS79 CD47xPD-L1 bispecific antibody (bispecific antibody, human IgG4 S228P, kappa, lambda, also called K106xS79 bsAb) heavy: not shown light 1: not shown light 2: QSALTQPASVSGSPGQSITISCTGTSSDVFRPPLVSWYQQHPGKAPKLMIYFASLRPSGVSNRFSGSKSGNTASLTISGLQAEDEADYYCSSWDHTGDGHVFGGGTKLTVLGQPKAAPSVTLFPPSSEELQANKATLVCLISDFYPGAVTVAWKADSSPVKAGVETTTPSKQSNNKYAASSYLSLTPEQWKSHRSYSCQVTHEGSTVEKTVAPTECS | 99 nM | 99.2 | 94 | 23.5 | no binding | 0.00351 nM | – | – | – | binds | –
S79 anti-PD-L1 mAb (antibody, human IgG4 S228P, lambda, V domains shown, Bivalent monospecific anti-PD-L1 antibody with the common heavy chain and the S79 lambda light chain; also called S79 mAb; S79_Sc3_1G7_VLCL2 aPDL1 IGLV2-23) VH: not shown VL: QSALTQPASVSGSPGQSITISCTGTSSDVFRPPLVSWYQQHPGKAPKLMIYFASLRPSGVSNRFSGSKSGNTASLTISGLQAEDEADYYCSSWDHTGDGHVFGGGTKLTVLG | – | – | – | – | – | 0.00252 nM | – | – | – | – | –
K38xS28 CD47xPD-L1 bispecific antibody (bispecific antibody, human IgG4 S228P, kappa, lambda, also called K38xS28 bsAb) heavy: not shown light 1: DIQMTQSPSSLSASVGDRVTITCRASQVIANWLNWYQQKPGKAPKLLIYAGSHLQSGVPSRFSGSGSGTDFTLTISSLQPEDFATYYCQQMHPRAPKTFGQGTKVEIKRTVAAPSVFIFPPSDEQLKSGTASVVCLLNNFYPREAKVQWKVDNALQSGNSQESVTEQDSKDSTYSLSSTLTLSKADYEKHKVYACEVTHQGLSSPVTKSFNRGEC light 2: not shown | – | – | – | – | no binding | – | – | – | – | no binding | –
